Data published in US20100092484A1 (published 2010).
Where a chain is given by its changes, count along the chain named. Names may count otherwise.

B1: anti-CD44 monoclonal antibody 1A9.A6.B9 (antibody, human IgG2, kappa, V domains shown)
VH: QVQLVESGGGVVQPGRSLRLSCAASGFTFSSYGMHWVRQAPGKGLEWVAVIWYDGSNKFYADSVKGRFTISRDNSKNTLYLQMNSLRAEDTAVYYCARRSDYRGYYGMDVWGQGTTVTVSS
VL: EIVLTQSPATLSLSPGERATLSCRASQSVINYLAWYQQKPGQAPRLLIYDASNRASGIPARFSGSGSGTDFTLTISSLEPEDFAVYYCQQRRNWPLTFGGGTKVEIKR
notes: also called mAb 1A9.A6.B9
B2: 2D1 WT/H38Q (mutated antibody 2D1.A3.D12: wild-type heavy chain, light chain H38Q) (antibody, human IgG1, kappa, V domains shown)
VH: QVQLVQSGAEVKKPGASVKVSCKASGYIFTSYAMHWVRQAPGQRLEWMGWINAAIGSTKYSQKFQGRVTITRDTSASTAYMELSSLRSEDTAVYYCARDGWEDYYYHGMDVWGQGTTVTVSS
VL: DIQMTQSPSSVSASVGDRVTITCRASQGISSWLAWYQQKPGKAPKLLIYAASSLQSGVPSRFSGSGSGTDFTLTISSLQPEDFATYYCQQANNFPWTFGQGTKVEIKR
B3: anti-CD44 monoclonal antibody 2D1.A3.D12 (antibody, human IgG1, kappa, V domains shown)
VH: B2 VH
VL: B2 VL with Q38H
B4: anti-CD44 monoclonal antibody 14G9.B8.B4 (antibody, human IgG1, kappa, V domains shown)
VH: QVQLVQSGAEVKKPGASVKVSCKASGYTFTNYAMHWVRQAPGQRLEWMGWINTGNGNTKYSQKFQGRVTITRDTSASTAYMELSSLRSEDTAVYYCARFYSGSGSPWGQGTLVTVSS
VL: not shown
B5: anti-CD44 monoclonal antibody 10C8.2.3 (antibody, human IgG4, kappa, V domains shown)
VH: EVQLMESGGGLVKPGGSLRLSCAASGFTFSSYSMNWVRQAPGKGLEWVSSITVRSSYIYYADSVKGRFTISRDNAKNSLYLQMNSLRAEDTAVYYCARVLAIAVPGTSYYYYGMDVWGQGTTVTVSS
VL: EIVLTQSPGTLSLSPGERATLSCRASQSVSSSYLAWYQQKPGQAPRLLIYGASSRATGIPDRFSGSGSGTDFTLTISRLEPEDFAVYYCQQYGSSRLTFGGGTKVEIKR

Columns and labels:
[1] = target: T1, human CD44 (on cells) (human, UniProt P16070 21-742); test: cell-based or functional assay
[2] = target: T2, cynomolgus CD44 (on cells) (cynomolgus monkey, UniProt P16070 21-742 (human entry)); test: cell-based or functional assay
T2 chain: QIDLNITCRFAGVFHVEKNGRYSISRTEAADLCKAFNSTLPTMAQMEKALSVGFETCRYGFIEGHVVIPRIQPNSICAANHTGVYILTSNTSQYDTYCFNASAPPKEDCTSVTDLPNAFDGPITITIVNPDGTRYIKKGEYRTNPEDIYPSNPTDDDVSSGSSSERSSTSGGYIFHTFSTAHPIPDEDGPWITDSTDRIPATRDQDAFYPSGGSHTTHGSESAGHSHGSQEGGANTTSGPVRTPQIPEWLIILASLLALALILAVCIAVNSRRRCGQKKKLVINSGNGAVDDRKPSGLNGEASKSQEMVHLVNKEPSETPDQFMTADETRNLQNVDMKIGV

[3] = target: T1, human CD44 (on cells); test: cell-based or functional assay; remark: listed apart in the source
[4] = target: T3, human CD44-IgG1 fusion protein (extracellular domain of human CD44 fused to human IgG1) (human); test: ELISA on plate-coated CD44-Ig against plate-coated LYVE-1
T3 construct: also called human CD44-Ig fusion protein; human CD44-Fc fusion protein
Description: (§1) A 96 well ELISA plate (Immuno Maxisorp plate, Nunc Cat. No. 442-404) was coated with 50 ng CD44-Ig fusion protein or LYVE-1 and incubated overnight at 4° C. The plates were then washed by PBS, 0.05% Tween-20 and blocked by 3% BSA in PBS for two hours at room temperature. […] The ELISA plates were incubated at room temperature for 1.5 hours. […] Plates were washed again, and […] of TMB were added and incubated for 5 to 10 minutes. ELISA reactions were stopped with stop solution and OD450 values were measured by a plate reader.

[5] = target: T3, human CD44-IgG1 fusion protein …; test: ELISA on plate-coated CD44-Ig (50 ng), anti-human kappa-HRP detection
Description: as §1

[6] = target: T1, human CD44 (on cells); test: FACS competition against labelled anti-CD44 antibody MEM-85 on cells bearing human CD44; cells: 300-19 cells transfected with human CD44 per legend paragraph 42, but the range 0.2 to 20 µg/ml is that of the human peripheral T cell study in paragraph 322
[7] = target: T3, human CD44-IgG1 fusion protein …; test: BIAcore 2000 SPR, human CD44-Ig immobilised on a CM-5 chip, antibody 100 to 0.1 ug/ml as analyte
Description: Human CD44-Ig (55 RU, 86 RU) and cyno CD44-Ig (99 RU, 116 RU) were immobilized to CM-5 chips at a concentration of 10 ug/ml in 10 mM Na Acetate pH 3.5. […] The chip was then regenerated with 50 mM NaOH and washed with HBS-EP (BIAcore 22-0512-44). Analysis was carried out on the Biacore 2000. Data was analyzed using BIAEvaluation™ software (n=2).

[8] = target: T4, lymphatic vessel endothelial hyaluronan receptor 1 protein (LYVE-1) (R&D, Cat. No. 2089-Ly) (UniProt Q9Y5Y7 24-232, limits assumed); test: ELISA on plate-coated LYVE-1 (50 ng), anti-human kappa-HRP detection
T4 sequence (looked up): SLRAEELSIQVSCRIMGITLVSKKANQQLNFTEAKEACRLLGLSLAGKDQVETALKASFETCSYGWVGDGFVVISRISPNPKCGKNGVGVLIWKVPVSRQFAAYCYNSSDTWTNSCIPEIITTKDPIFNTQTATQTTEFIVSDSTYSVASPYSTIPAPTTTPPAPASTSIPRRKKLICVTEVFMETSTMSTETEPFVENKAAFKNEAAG
Description: as §1

[9] = target: T1, human CD44 (on cells); test: cell-based or functional assay; remark: listed apart in the source
[10] = target: T1, human CD44 (on cells); test: FACS equilibrium binding analysis on 300-19 cells transduced with human CD44; printed as 'binding constant'
Description: The 300-19 cells which were transduced with retroviral vector encoding human CD44 protein and were washed two times by PBS. […] After 3 hours the cells were washed twice with FACS buffer. The cells were resuspended into 250 μl of 1% paraformaldehyde, (Electron Microscopy Science, Ft. Washington, Pa., Cat. No. 15710). The tubes were read using Becton Dickinson FACSCalibur and the data was analyzed using CellQuest Pro (Becton Dickinson).

[11] = target: T1, human CD44 (on cells); test: cell-based or functional assay; remark: listed apart in the source
[12] = target: T2, cynomolgus CD44 (on cells); test: cell-based or functional assay
[13] = target: T3, human CD44-IgG1 fusion protein …; test: ELISA: antibody pre-mixed with human CD44-Ig (0.6 µg/ml); inhibition of CD44-Ig binding to plate-coated hyaluronic acid (HA, a polysaccharide)
Description: (§2) Human anti-CD44 antibodies were evaluated for their ability to inhibit the interaction between HA (Sigma, Cat. No. H5388) and human CD44 protein (SEQ ID NO:3) as described in EXAMPLE 2.
(§3) Binding assays were conducted in 96 well ELISA assay plates (Immunolux HB Maxisorp 96-well plates, Nunc Cat. No. 442-404). On day one, 100 μl of rooster comb HA diluted in 50 mM Nabicarb buffer, pH 9.6 at 2.5 mg/ml was added to assay wells on the plate and incubate at 4° C. overnight. Approximately, 24 hours later the HA coated plates were washed four times using 300 μl of PBS buffer with 0.05% Tween-20 (Sigma, Cat. No. P1379). The plates were then blocked by adding 200 μl of 3% BSA in PBS to each well and incubated for 2 hours at 37° C. The blocked plates were then washed with PBS with 0.05% Tween-20. […] The mixture was incubated at room temperature for 60 minutes and then transferred to the HA-coated plates and incubate at room temperature for one hour. The plates were washed by PBS with 0.05% Tween-20. Anti-human IgG-HRP (Amersham Biosciences, Piscataway, N.J., State, Cat. No. NA933) diluted 1:500 in 1% BSA (to detect CD44-Ig that is bound to HA) were added to each wells and incubate at room temperature. […] The reactions were then stopped with 50 μl of stop solution and OD₄₅₀ values were measured on a plate reader.

[14] = target: T3, human CD44-IgG1 fusion protein …; test: BIAcore SPR, human CD44-Fc fusion immobilised on a CM5 chip, antibody as analyte
Description: Surface plasmon resonance was used to measure the molecular interaction on a CM5 sensor chip coated with human CD44-Fc fusion protein (12 μg/ml, 10 mM Acetate, pH 4.0) on the surface. Anti-CD44 Abs at concentration of 5, 3, 2, 1, 0.5 and 0.25 μg/ml were screened by direct method. Human IgG1 and IgG2 standards were used to check nonspecific and background binding. Initial portion of the association and dissociation phase of the curves are used to calculate affinity and rate constants and is reported in TABLE 17.

[15] = target: T3, human CD44-IgG1 fusion protein …; test: ELISA: antibody pre-mixed with human CD44-Ig (0.6 µg/ml); inhibition of CD44-Ig binding to plate-coated hyaluronic acid (HA)
Description: as §2, §3

IC50 of reduction of CD44 surface expression on human peripheral CD3+ T cells (FACS) [1] | IC50 of reduction of CD44 surface expression on cynomolgus peripheral CD3+ T cells (FACS) [2] | IC50 of IL-1β release from purified human PBMC stimulated by HA [3] | fold selectivity for CD44 over LYVE-1 [4] | EC50 [5] | binding result [8] | IC50 of IFN-γ release from human peripheral blood activated by anti-CD3 and anti-CD28 antibodies [9] | IC50 of IL-2 release from human peripheral blood activated by anti-CD3 and anti-CD28 antibodies [9] | Kd [14] | koff [14] | IC50 [15] | further results | Binder
2.8 µg/mL | 0.82 µg/mL | 0.83 µg/mL | > 100 fold | 0.011 µg/mL | no binding (tested: 10 µg/ml) | 2.46 µg/mL | 0.58 µg/mL | 0.6 nM | 0.000576 s⁻¹ |  | IC50 (read off the curve) [6]: ~3 µg/mL; Kd [7]: 0.051 nM; koff [7]: 0.00039 s⁻¹; Kd [10]: 6.8 nM; IC50 of reduction of CD44 expression on human peripheral blood B cells (FACS) [11]: 2.4 µg/mL; IC50 of reduction of CD44 expression on human peripheral blood T cells (FACS) [11]: 2.6 µg/mL; IC50 of reduction of CD44 expression on human peripheral blood monocytes (FACS) [11]: 3.3 µg/mL; IC50 of reduction of CD44 expression on cynomolgus peripheral blood T cells (FACS) [12]: 1.1 µg/mL; IC50 [13]: 0.41 µg/mL | B1
 |  |  |  |  |  | 2.45 µg/mL | 0.46 µg/mL |  |  |  |  | B2
> 20 µg/mL | > 20 µg/mL | 0.23 µg/mL | > 100 fold | 0.024 µg/mL | no binding (tested: 10 µg/ml) |  |  | 2.01 nM | 0.000653 s⁻¹ | 0.33 µg/mL |  | B3
 |  |  |  |  | no binding (tested: 10 µg/ml) |  |  |  |  |  |  | B4
> 20 µg/mL |  | 0.4 µg/mL |  |  |  |  |  |  |  | 0.64 µg/mL |  | B5
